From patent US6716809B1, “Mage-A3 peptides presented by HLA class molecules” (priority 1997, dated 2004)

Columns and labels:
Format in all cases: cell-based, human
[1] = test system: CD4 T cell clone LB 1555 CD4 436/B6.37; assay: Recognition of retrovirally transduced cells by CD4 T cell clone (IFN-γ ELISA); details: overnight coculture
Method: The EBV transformed cells were infected by resuspending the cells in an infection cocktail and centrifugation. Target cells were resuspended in 60 mm tissue culture plates (Falcon) at a density of 1.0×10^6 cells in 4 ml infection cocktail. The plates were centrifuged for 2 hours at 32° C. and 1200 rcf in an IEC centrifuge, rotor type 228. For each plate to be transduced, 4 ml of […] was prepared by diluting the viral supernatant 1:2 in EBV cell growth medium and adding protamine sulfate to a final concentration of 6 μg/ml. Centrifugation was followed by another 2 hours of incubation in a humidified incubator at 37° C. and cells were transferred to 4 ml of target cell growth medium. This transduction cycle was carried out immediately after plating the cells and was repeated at 24 and 48 hours. […]
5000 T cells of LB705 CTL 434/1 or 3000 T cells of clone LB1555 CD4 436/B6.37 were washed and cultured overnight in the presence of 5000 retrovirally transduced EBV B cells of MZ2-EBV, or LG2-EBV B cells, in 100 μl ID medium containing 10% HS, AAG and 50 U/ml rh IL-2 in a round-bottom 96 wells plate. […] After three washings the plates were incubated with 50 μl per well horseradish peroxidase conjugated streptavidin (1:3000 in PBS/0.5% BSA) for 30 min at RT, which was detected by TMB substrate, and H2SO4 to stop the reaction. The optical density was read at 450 nm. […]

clone C3.22 = assay: IFN-γ production by CD4 clone C3.22 stimulated with peptide- or protein-pulsed EBV-B cells; details: 20 μg/ml protein
Method: (§1) EBV-B cells from hemochromatosis patient 1981 (LB-1981-EBV) were incubated with 20 μg/ml of ovalbumin (OVA) or MAGE-A3 protein (bacteria) for 20 h. Ten thousand cells were distributed in microwells to which an aliquot of microculture C3 (˜4,000 effector cells) was added. Several clones were obtained from microculture C3, in particular CD4^+ clones LB1981-CD4 527/C3.22 (referred to hereafter as clone C3.22) and LB1981-CD4 527/C3.43 (referred to hereafter as clone C3.43). The clones C3.22 and C3.43 (˜3,000 cells) were stimulated with LB-1981-EBV incubated with 20 μg/ml of MAGE-A3 (˜16,000 cells) or transduced with a retrovirus coding for a fusion protein Ii-MAGE-A3 (˜20,000 cells). IFN-γ production in the supernatant was estimated after overnight culture by ELISA. They both recognized autologous EBV-B cells loaded with protein MAGE-A3 (bacteria) or transduced with a retrovirus encoding a truncated invariant chain (Ii)-MAGE-A3 fusion protein (FIG. 17). These (most probably twin) clones recognized cells expressing Ii-MAGE-A3 endogenously and therefore they are directed against a MAGE-A3-derived antigen and not against a contaminant in the batch of protein.
(§2) The antigenic peptides were identified as described above, except that the peptides were tested at a concentration of 1 μg/ml and that the test was performed in 100 μl. Peptides LGDPKKLLTQHFVQEN (SEQ ID NO:82), KKLLTQHFVQENYLEY (SEQ ID NO:83), TQHFVQENYLEYRQVP (SEQ ID NO:84) and VQENYLEYRQVPGSDP (SEQ ID NO:85) were tested. Autologous EBV-B cells were incubated for 1 h with 1 μg/ml of each of the peptides. Clone C3.43 (3,000 cells) was then cocultured with 20,000 peptide-pulsed cells for 20 h. IFN-γ production in the supernatant was measured by ELISA.
(§3) Patient LB1981 was typed DPB1*0401. To confirm that DPB1*0401 was the presenting HLA-DP molecule, additional EBV-B cell lines were tested. Autologous LB 1981-EBV or allogeneic-EBV-B cells were incubated for 1 h with 1 μg/ml of peptides, and washed. CD4 clones (3,000 cells) were then incubated for 20 h with 20,000 peptide-pulsed EBV-B cells. IFN-γ released in the supernatant was measured by ELISA. Those EBV-B cell lines expressing DPB1*0401 were able to present the MAGE-A3243-258 peptide to clone C3.22 (Table VII). DPB1*0401 is expressed in approximately 64% of Caucasians.

clone C3.43 = assay: IFN-γ production by CD4 clone C3.43 stimulated with peptide- or protein-pulsed EBV-B cells; details: 20 μg/ml protein
Method: as §1, §2, §3

B1: MAGE-A3: MAGE-A3 protein; recombinant His-MAGE-A3 produced in E. coli, or expressed from MFG MAGE-A3 retrovirus in Example 6 (protein, listed as Homo sapiens)
chain: MPLEQRSQHCKPEEGLEARGEALGLVGAQAPATEEQEAASSSSTLVEVTLGEVPAAESPDPPQSPQGASSLPTTMNYPLWSQSYEDSSNQEEEGPSTFPDLESEFQAALSRKVAELVHFLLLKYRAREPVTKAEMLGSVVGNWQYFFPVIFSKASSSLQLVFGIELMEVDPIGHLYIFATCLGLSYDGLLGDNQIMPKAGLLIIVLAIIAREGDCAPEEKIWEELSVLEVFEGREDSILGDPKKLLTQHFVQENYLEYRQVPGSDPACYEFLWGPRALVETSYVKVLHHMVKISGGPHISYPPLHEWVLREGEE
modifications: His tag
With B1 as the molecule, how does the “recognition of transduced MZ2 EBV by CD4 clone 436/B6.37 (IFN-γ release)” value [1] read?
The value was “not recognized”.

What about the “recognition by clone C3.22 of autologous EBV-B cells loaded with protein” value (clone C3.22) of the same molecule?
The value was “recognized”.

And the “recognition by clone C3.43 of autologous EBV-B cells loaded with protein” value (clone C3.43)?
Its value is “recognized”.
